Ends that are not written are not given here.

The target of this test is T1, biotinylated tau peptide spanning amino acids 199-213 of SEQ ID NO:3 (human, also: biotinylated (position not given here)).
T1 peptide: KSKIGSTENLKHQPG
Nature of the test: ELISA, biotinylated peptide on streptavidin plate. From the text:
Overlapping biotinylated peptides spanning the length of the 4R0N isoform of tau (383 amino acids) were bound to wells of a streptavidin-coated ELISA plate. The plate was washed and blocked, and murine forms of antibodies 5G8, 6A10, 8A4, 7G6 and 3D6 were applied. After washing, a horseradish peroxidase-conjugated anti-mouse antibody was applied to the plate, followed by treatment with OPD (o-phenylenediamine dihydrochloride) to allow color development. The plate was read at 450 nm absorbance, with background from wells omitting primary antibody used as a blank subtraction. […] These peptides correspond to amino acids 257-271 and 315-329 in the full-length 4R2N human tau protein.

B1: mouse monoclonal antibody 5G8 (antibody, V domains shown)
VH: EVQLQQSGAELVRSGASVRLSCTASGFNIKDYYMHWVRQRPEQGLEWIGWIDPENGDTVYAPKFQGKATMTSDTSSNTAYLHLSSLTSEDTAVYYCSPLDFWGQGTTLTVSS
VL: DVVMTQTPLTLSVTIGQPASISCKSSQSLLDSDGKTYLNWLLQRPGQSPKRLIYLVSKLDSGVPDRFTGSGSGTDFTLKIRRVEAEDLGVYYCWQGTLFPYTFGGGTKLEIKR
notes: Hybridoma-produced mouse antibody; also called m5G8; murine 5G8
As for B1, the binding result is listed as “binds”.

B2: mouse monoclonal antibody 6A10 (antibody, mouse IgG1, V domains shown)
VH: EVQLQQSGAELVRSGASVKLSCTASGLNIKDYYIHWVKQRPEQGLEWIGWIDPENDDTEYAPKFQGRATLTTDTSSNTAYLQLSSLTSEDTAVYYCTPLDYWGQGTSVTVSS
VL: not shown
notes: Mouse IgG1/kappa; also called m6A10; murine 6A10
Regarding B2, the binding result was “binds”.

B3: mouse monoclonal antibody 8A4 (antibody, mouse IgG1, V domains shown)
VH: EVQLQQSGAELVRPGALVKLSCKASGFNIKDYYIHWVKQRPEQGLEWIGWIDPENGDTVYDPQFQDKANITADTSSNTAYLQLSSLTSEGTAVYYCSTLDFWGQGTTLTVSS
VL: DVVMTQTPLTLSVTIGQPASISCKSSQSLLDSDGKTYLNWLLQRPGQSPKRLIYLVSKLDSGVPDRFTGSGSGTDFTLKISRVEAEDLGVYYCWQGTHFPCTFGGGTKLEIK
notes: Mouse IgG1/kappa; also called m8A4; murine 8A4
As to B3, the binding result is “binds”.

Values taken from patent publication US20220089702A1 (PROTHENA BIOSCIENCES, published 2022).
